Measurements from US11858972B2, “Micropeptides and uses thereof” (FUNDACIÓ PRIVADA INSTITUT D'INVESTIGACIÓ ONCOLÒGICA DE VALL …, priority 2018, dated 2024).

Key:
[1] = system: BxPC-3 pancreatic cancer cell line; assay: Cell viability by CellTiter-Glo after doxycycline-induced expression; type: cell-based; conditions: BxPC-3, expression induced by doxycycline for 4 days
Description: (§1) FIG. 5. Micropeptide of sequence SEQ ID NO: 1 overexpression induces cell cycle arrest and cellular senescence. BxPC-3 cells were transduced with an inducible lentivirus coding HA-SEQ ID NO: 1. Micropeptide of sequence SEQ ID NO: 1 expression was induced by doxycycline treatment for 4 days. (A) Phase contrast images of SEQ ID NO:1-expressing cells and control cells. (B) Cell viability analysis by CellTiter-Glo assay. (C) Cell cycle analysis by flow cytometry. Left, histogram plots. Right, quantification of the number of cells in every cell cycle phase (D) Analysis of p27 and p21 expression by qPCR. (E) Western Blot of the indicated cells using anti-HA and anti-p21 antibodies. (F) Quantification of the number of SA-β-Gal positive cells in doxycycline-treated and untreated cells. (G) Representative pictures of the cell quantified in (F). Graphs show the mean±SEM, using at least 3 technical replicates. **P<0.01 ***P<0,001 **** P<0.0001, two-tailed t-test.
(§2) Micropeptide of SEQ ID NO: 1 expression was induced in BxPC3 cells by treatment with doxycycline (2 μg/ml) for 4 days. Cells were fixed using 100% ethanol at 4° C., stained with Propidium Iodide, and cell cycle was analysed by flow cytometry (LSR-Fortessa cytometer). Cell viability in micropeptide of SEQ ID NO: 1-expressing cells was evaluated using CellTiter-Glo 2.0 (Promega) following manufacturer's instructions.

[2] = system: BxPC-3 pancreatic cancer cell line; assay: Cell cycle analysis by flow cytometry; type: cell-based; conditions: BxPC-3, expression induced by doxycycline for 4 days
Description: as §1, §2

[3] = system: CDK inhibitors p27 and p21; assay: p27 and p21 expression by qPCR and Western Blot in BxPC-3; type: cell-based; conditions: BxPC-3, doxycycline-induced expression
Description: as §1
Total RNA was extracted with Trizol® and treated with TURBO™ DNase following provider's recommendations. 1 μg of RNA was retrotranscribed using iScript™ cDNA Synthesis Kit (BioRad). Gene expression was analysed by quantitative real time PCR using PowerUp SYBR Green Master Mix (Thermo Fisher Scientific) in the 7900HT Fast Real-Time PCR System (Applied Biosystems). Cycle threshold (Ct) values were normalized to GAPDH. […]

BxPC-3 cells = assay: Drug sensitivity assay, cell viability by crystal violet; type: cell-based; parameters: cell death induced by Doxorubicin: dose or concentration left out as unconfirmed; conditions: days 2 to 4
Method: FIG. 6. Micropeptide of sequence SEQ ID NO: 1 expression induces cell death upon cellularstress. SkBR-3, HPAF II, MIA PaCa-2 and BxPC-3 cells were infected with empty or SEQ ID NO: 1-HA retroviruses, and selected by puromycin. Micropeptide of sequence SEQ ID NO: 1 expression was analyzed by qPCR (A) and by Western blot (B). (C) Phase contrast images of the indicated cells 3 days after selection with puromycin. […] (E) BXPC-3 cells were infected with an inducible lentivirus encoding SEQ ID NO: 1-HA, and selected with Neomycin. Micropeptide of sequence SEQ ID NO: 1 expression was induced by doxycycline, and cells were treated with Doxorubicin or Actinomycin D. (E) Cell viability of the indicated cells measured by crystal violet staining. For drug sensitivity assays, doxycycline induction was coupled with Doxorubicin ([…]) or Actinomycin D (5 nM) (from days 2 to 4), and cell viability was measured by staining with crystal violet.

[4] = system: squamous cell carcinoma cell line H10; assay: Cell proliferation assay (growth curve, 14 days); type: cell-based; conditions: H10, monitored for 14 days, vs control vector
Description: (§3) FIG. 8. SEQ ID NO: 1 overexpression reduces cell proliferation. A549 and H10 cells were transduced with an inducible lentivirus coding HA-SEQ ID NO: 1. SEQ ID NO: 1 expression was induced by doxycycline treatment for 14 days. (A) Growth curve of transduced cells over 14 days of SEQ ID NO:1 expression. (B) Cell cycle analysis by flow cytometry. Left, histogram plots. Right, quantification of the number of cells in every cell cycle phase. Graphs show the mean±SD, using at least 3 technical replicates. **** P<0.0001, two-tailed t-test.
A549 and H10 cell lines were dissociated by trypsin digestion and seeded into 24-well cell culture plates at density 5×10^3 cells/well. Every two days, cells were dissociated from wells and counted using a Neubauer chamber. Cell growth curves were monitored for 14 days.

A549 cells = assay: Cell cycle analysis by flow cytometry; type: cell-based, human
Description: as §3, §2

H10 cells = assay: Cell cycle analysis by flow cytometry; type: cell-based
Description: as §3, §2

[5] = system: EMT regulators VIMENTIN, SLUG, SNAIL, N-CADHERIN, TWIST1, TWIST2, ZEB1 and ZEB2; assay: Mesenchymal gene expression by qPCR in H10 SCC cell line; type: cell-based
Method: FIG. 9. SEQ ID NO: 1 overexpression impairs invasiveness and reduces mesenchymal traits in A549 and H10 cell lines. Invasion of indicated cells was analyzed in matrigel-coated inserts. (A) The undersides of membrane inserts containing invaded cells were fixed and stained with crystal violet and photographed 24 h after plating. (B) Number of invasive cells was calculated using ImageJ software. Bars plots show relative number of cells invading the chamber. (C) Analysis of several mesenchymal genes by qPCR. mRNA expression is shown relative to the control. * P<0.05, **P<0.01 two-tailed t-test.
Total RNA was extracted with Trizol® and treated with TURBO™ DNase following provider's recommendations. 1 μg of RNA was retrotranscribed using iScript™ cDNA Synthesis Kit (BioRad). Gene expression was analysed by quantitative real time PCR using PowerUp SYBR Green Master Mix (Thermo Fisher Scientific) in the 7900HT Fast Real-Time PCR System (Applied Biosystems). Cycle threshold (Ct) values were normalized to GAPDH.

[6] = system: protein ubiquitylation pattern in BxPC-3 infected cells; assay: Ubiquitylated protein levels by Western Blot after MG132; type: cell-based; conditions: proteasome blocking with MG132
Description: FIG. 11. Micropeptide of sequence SEQ ID NO: 1 expression changes cell ubiquitylation pattern. (A) Co-Immunoprecipitation using Anti-HA and Western Blot experiments indicate the presence of ubiquitylated proteins in the pull down of SEQ ID NO: 1 expressing cells. (B) Analysis of ubiquitylated protein levels by Western Blot in SEQ ID NO: 1 or empty vector BxPC-3 infected cells after proteasome blocking treatment with MG132.

B1: SEQ ID NO: 1: highly conserved 87 aa micropeptide coded by the lncRNA TINCR; predicted ubiquitin-like protein (protein, listed as Homo sapiens)
chain: MEGLRRGLSRWKRYHIKVHLADEALLLPLTVRPRDTLSDLRAQLVGQGVSSWKRAFYYNARRLDDHQTVRDARLQDGSVLLLVSDPR
cell proliferation [1]: significantly reduces cell proliferation
cell cycle [2]: induces cell cycle arrest in G1 phase
expression of the CDK inhibitors p27 and p21 [3]: upregulation
cell death induced by Actinomycin D (BxPC-3 cells; BxPC-3, doxycycline induction coupled with Actinomycin D (5 nM)): sensitizes to cell death
cell death induced by Doxorubicin (BxPC-3 cells; BxPC-3, doxycycline induction coupled with Doxorubicin): sensitizes to cell death
growth rate [4]: consistently lower growth rate
cells arrested in G1 phase (A549 cells): increase in cells arrested in G1 phase
cells arrested in G1 phase (H10 cells): increase in cells arrested in G1 phase
expression of the EMT regulators VIMENTIN, SLUG, SNAIL, N-CADHERIN, TWIST1, TWIST2, ZEB1 and ZEB2 [5]: represses the expression
protein ubiquitylation pattern [6]: alters protein ubiquitylation pattern
